Consider one molecule from PMC10767033 (Scientific Reports, 2024).

The target in this experiment is T1, galectin-3 (Homo sapiens (assumed; ), UniProt P17931, biotin (biotinylated galectin-3)).
T1 construct: galectin-3
Put plainly: ELISA; biotinylated galectin-3 (10 µg/mL) captured on NeutrAvidin-coated wells blocked with 3% skim milk; VHH at 800, 400 and 200 nM in solution, 30 min; detected with HRP anti-FLAG antibody; absorbance at 450 nm. The note with it: both partners purified.

T1 sequence (P17931 whole entry): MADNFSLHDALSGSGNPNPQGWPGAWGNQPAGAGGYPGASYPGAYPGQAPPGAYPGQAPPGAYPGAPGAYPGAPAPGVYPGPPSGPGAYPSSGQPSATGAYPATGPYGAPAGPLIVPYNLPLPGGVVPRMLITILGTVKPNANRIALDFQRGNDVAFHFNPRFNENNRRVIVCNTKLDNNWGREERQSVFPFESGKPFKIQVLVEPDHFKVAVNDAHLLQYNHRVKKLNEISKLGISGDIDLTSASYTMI

B1: wild-type VHH (3DWT) (VHH)
VHH: QVQLVESGGGSVQAGGSLRLSCTASGGSEYSYSTFSLGWFRQAPGQEREAVAAIASMGGLTYYADSVKGRFTISRDNAKNTVTLQMNNLKPEDTAIYYCAAVRGYFMRLPSSHNFRYWGQGTQVTVSS
notes: framework 1 of the VHH of PDB 3DWT; CDR1 (13 aa) of the wild type; framework 2 of the VHH of PDB 3DWT; CDR2 (10 aa) of the wild type; framework 3 of the VHH of PDB 3DWT; CDR3 (16 aa) of the wild type; framework 4 of the VHH of PDB 3DWT; also called wild-type 3DWT; source: E. coli BL21(DE3), purified (IMAC, SEC)
B1: the binding result is “no binding (tested: 800 nM, 400 nM, and 200 nM of VHHs)”.
